Laboratory results taken from patent US8669352 (PANGENETICS B V, dated 2014).
Numbering of substitutions follows the chain as printed. Numbers in names are those of the source. Where “and” joins values, the source holds several entries; their conditions need not be identical. Identical values can stand only once.

B1: PG102 (I29L variant) (antibody, human IgG4, kappa, V domains shown)
VH: QVKLQESGPGLVKPSETLSITCTVSGFSLSRYSVYWIRQPPGKGPEWMGMMWGGGSTDYSTSLKSRLTISKDTSKSQVSLKMNSLRTDDTAMYYCVRTDGDYWGQGTTVTVSS
VL: ELQLTQSPLSLPVTLGQPASISCRSSQSLANSNGNTYLHWYLQRPGQSPRLLIYKVSNRFSGVPDRFSGSGSGTDFTLKISRVEAEDVGVYYCSQSTHVPWTFGGGTKLEIKR
notes: Human IgG4/kappa; also called 29L-37I
B2: I37V variant of deimmunised 5D12 (antibody, human IgG4, V domains shown)
VH: B1 VH with L29I, I37V
VL: B1 VL
notes: VH on a human IgG4 backbone; also called 137V; 29I-37V
B3: Q5E variant of deimmunised 5D12 (antibody, human IgG4, V domains shown)
VH: B1 VH with Q5E, L29I
VL: B1 VL
notes: VH on a human IgG4 backbone
B4: P45L variant of deimmunised 5D12 (antibody, human IgG4, V domains shown)
VH: B1 VH with L29I, P45L
VL: B1 VL
notes: VH on a human IgG4 backbone
B5: T68S variant of deimmunised 5D12 (antibody, human IgG4, V domains shown)
VH: B1 VH with L29I, T68S
VL: B1 VL
notes: VH on a human IgG4 backbone
B6: K13A variant of deimmunised 5D12 (antibody, human IgG4, V domains shown)
VH: B1 VH with K13A, L29I
VL: B1 VL
notes: VH on a human IgG4 backbone
B7: STS60NSA variant of deimmunised 5D12 (antibody, human IgG4, V domains shown)
VH: B1 VH with L29I, S60N, T61S, S62A
VL: B1 VL
notes: VH on a human IgG4 backbone
B8: T108S variant of deimmunised 5D12 (antibody, human IgG4, V domains shown)
VH: B1 VH with L29I, T108S
VL: B1 VL
notes: VH on a human IgG4 backbone
B9: E16Q variant of deimmunised 5D12 (antibody, human IgG4, V domains shown)
VH: B1 VH with E16Q, L29I
VL: B1 VL
notes: VH on a human IgG4 backbone
B10: S79F variant of deimmunised 5D12 (antibody, human IgG4, V domains shown)
VH: B1 VH with L29I, S79F
VL: B1 VL
notes: VH on a human IgG4 backbone
B11: T17S variant of deimmunised 5D12 (antibody, human IgG4, V domains shown)
VH: B1 VH with T17S, L29I
VL: B1 VL
notes: VH on a human IgG4 backbone
B12: M48L variant of deimmunised 5D12 (antibody, human IgG4, V domains shown)
VH: B1 VH with L29I, M48L
VL: B1 VL
notes: VH on a human IgG4 backbone

Legend:
human CD40 [1] = biological target: T1, human CD40 (human, UniProt P25942 21-277); assay: cell-based or functional assay
T1 sequence (P25942 21-277): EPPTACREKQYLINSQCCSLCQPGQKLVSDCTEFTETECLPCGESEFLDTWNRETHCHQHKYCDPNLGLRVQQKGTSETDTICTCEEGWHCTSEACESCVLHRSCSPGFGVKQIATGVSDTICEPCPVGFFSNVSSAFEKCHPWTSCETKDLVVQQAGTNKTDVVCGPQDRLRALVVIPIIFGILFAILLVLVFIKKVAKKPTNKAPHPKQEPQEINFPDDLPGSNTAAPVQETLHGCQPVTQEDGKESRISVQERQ

human CD40 [2] = biological target: T1, human CD40; assay: flow cytometry on JY cells; competitor 1 µg/mL PG102-PE; n=4
Experimental: (§1) Competitive Inhibition of ch5D12 (PG100)-PE and PG102-PE Binding to JY Cells Expressing Human CD40 Using Unlabelled Anti-CD40 Antibody Materials and Methods JY cells (Epstein—Barr virus-transformed human B lymphoblastoid cell line) were grown in Iscove's Modified Dulbecco's Medium (IMDM) containing 10% heat-inactivated foetal calf serum (FCS), 2 mM L-glutamine and 50 μg/mL gentamycin in an air-humidified atmosphere containing 5% CO_2, at 37° C. Cells were harvested on the day of flow cytometric measurements.
(§2) Unlabelled ch5D12 (PG100) (Batch 4) and PG102 (Batch 2) antibodies were used in these experiments. Both antibodies were also used in PE-labelled form for direct determination of binding to JY cells by flow cytometry. Antibodies were custom-labelled with PE by AbD Serotec (Oxford, UK). For each FACS analysis the following protocol was used. JY cells were harvested from cell culture and counted. […] Cells were washed followed by flow cytometric analysis in which the MFI at every concentration was determined using a FACScan flow cyometer (Becton & Dickinson). Five thousand events/sample were measured and analyzed using CellQuest® software (Becton & Dickinson).

[3] = biological target: T2, huCD40-muIg (Ancell, catalogue number 504-020) (human, UniProt P25942 21-193); assay: ELISA on coated human CD40-Fc; half-maximal binding concentration
T2 construct: also called CD40-Fc; human CD40-Fc; not shown: murine Ig part
T2 sequence (P25942 21-193): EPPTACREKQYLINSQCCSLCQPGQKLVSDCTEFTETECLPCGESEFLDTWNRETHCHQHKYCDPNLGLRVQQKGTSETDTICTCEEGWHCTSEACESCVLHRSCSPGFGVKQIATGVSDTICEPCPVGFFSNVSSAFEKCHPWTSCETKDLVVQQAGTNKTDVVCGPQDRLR
Experimental: Plates were washed 3 times with 200 μL/well wash buffer (0.05% Tween-20 in PBS). Subsequently, plates were blocked with 200 μL/well blocking buffer (5% BSA Fraction V [Roche, catalogue number 735094] in wash buffer) and incubated for 1 h at 37° C. (humid environment). Plates were washed 3 times with wash buffer. Test antibodies (ch5D12 (PG100), PG102, and negative control chimaeric anti-huCD86 antibody chFUN-1) were diluted in the range 0-1200 ng/mL in blocking buffer and transferred to assay plates in a final volume of 100 μL/well, followed by incubation for 1 h at 37° C. (humid environment). Plates were washed 3 times with wash buffer followed by addition of 100 μl/well goat anti-human kappa-AP detection antibody (Southern Biotech Associates catalogue number 2060-0) diluted 1:1000 in blocking buffer. Plates were incubated for 1 h at 37° C. in a humid environment before washing 3 times with wash buffer and a further single wash with PBS.

[4] = biological target: T3, Recombinant human CD40 extracellular domain fused to human IgG1-Fc domain (huCD40-Fc; R&D Systems 149-CD-50) (human, UniProt P25942 21-193); assay: SPR (Biacore 3000), immobilised huCD40-Fc, Langmuir (1:1) model
T3 construct: extracellular domain; Bought reagent; also called human CD40-Fc; not shown: human IgG1-Fc domain
T3 sequence (P25942 21-193): as above
Experimental: (§3) The kinetics of ch5D12 (PG100) and PG102 (I29L variant) binding to human CD40 were compared by surface plasmon resonance at a constant temperature of 25.0° C., using a Biacore 3000 instrument. Recombinant human CD40 extracellular domain fused to human IgG1-Fc domain (huCD40-Fc; R&D Systems catalogue number 149-CD-50) was used as the target antigen in these experiments. HuCD40-Fc (1 µg/mL in 10 mM acetate buffer, pH 5.0) was coupled via the amine groups of Lys residues to carbodiimide-activated Biacore CM5 chips, resulting in an antigen immobilization level of 127.4 RU. For kinetic analyses, dilution series of ch5D12 (PG100) and PG102 (range 10.0 µg/mL to 0.313 µg/mL) were prepared in Biacore Running Buffer (HEPES-buffered saline containing EDTA and surfactant; HBS-EP). Kinetic analyses were performed at a flow rate of 30 µL/min. Samples were allowed to bind for 4 min and to dissociate for 5 min, at the same flow rate. The chip surface was then regenerated for 30 seconds using 30 mM NaOH and a baseline re-established in HBS-EP for 2.5 min before injection of the next sample. […]
(§4) BIAcore control software (Version 3.2) was used for data collection and BIAevaluation software (Version 4.1) was used for analysis of kinetic data. Binding parameters were calculated using two different models of molecular interaction: a bivalent analyte model and Langmuir 1:1 binding model.

human CD40 [5] = biological target: T1, human CD40; assay: flow cytometry on JY cells; competitor 1 µg/mL ch5D12 (PG100)-PE; n=4
Experimental: as §1, §2

[6] = biological target: T3, Recombinant human CD40 extracellular …; assay: SPR (Biacore 3000), immobilised huCD40-Fc, Langmuir (1:1) model, ka
Experimental: as §3, §4

[7] = biological target: T3, Recombinant human CD40 extracellular …; assay: SPR (Biacore 3000), immobilised huCD40-Fc, Langmuir (1:1) model, kd
Experimental: as §3, §4

[8] = biological target: T3, Recombinant human CD40 extracellular …; assay: SPR (Biacore 3000), immobilised huCD40-Fc, bivalent binding (1:2) model
Experimental: as §3, §4

[9] = biological target: T3, Recombinant human CD40 extracellular …; assay: SPR (Biacore 3000), immobilised huCD40-Fc, bivalent binding (1:2) model, ka1
Experimental: as §3, §4

[10] = biological target: T3, Recombinant human CD40 extracellular …; assay: SPR (Biacore 3000), immobilised huCD40-Fc, bivalent binding (1:2) model, kd1
Experimental: as §3, §4

human CD40 [11] = biological target: T1, human CD40; assay: flow cytometry competition on JY cells against 1 µg/mL PE-labelled ch5D12 (PG100) or PG102; range told of both antibodies
Experimental: as §1, §2

human CD40 [12] = biological target: T1, human CD40; assay: FACS on JY cells expressing CD40; 100 µl PER.C6 transient supernatant harvested after 48 h (antibody concentration not equalised), FITC anti-human IgG 1/100; in the same figure Mock Control Mean 11.25 / Median 8.74, FACS control (secondary only) Mean 10.18 / Median 8.74
Experimental: (§5) FIG. 8. FACS analysis using JY cells. PER.C6 cell supernatant of the transient expressed variants (Q5E, K13A, E16Q, T17S, I29L, 37V, P45L, M48L, STS60NSA, T68S, S79F, and T108S) of 5D12 was harvested after 48 h. As control also supernatant was harvested of cells transfected with either ch5D12 or D15D12 together with supernatant from mock (no plasmid) transfected cells. Binding of expressed antibodies was tested by FACS using JY cells together with anti-human FITC labelled secondary antibody (1/100 diluted). As FACS control JY cells were incubated with only the secondary FITC labelled antibody.
(§6) By FACS analysis the antigen specificity of the expressed antibodies was analyzed. JY cells are EBV transformed human B-cells, which express CD40. Briefly, 100,000 JY cells were incubated with 100 µl supernatant from the transient expression experiment at 4° C. for 20 minutes. To remove unbound antibody cells were washed with PBS containing 0.05% NaAzide and 1% BSA. As secondary antibody 1/100 diluted FITC labeled anti-human IgG (Jackson 109-095-127) was used. After 20 minutes incubation at 4° C. cells were washed. Finally cell samples were measured on a FACScan (BD).

human CD40 [13] = biological target: T1, human CD40; assay: FACS on JY cells expressing CD40; 100 µl PER.C6 transient supernatant harvested after 48 h (antibody concentration not equalised), FITC anti-human IgG 1/100; in the same figure Mock Control Mean 11.25 / Median 8.74, FACS control (secondary only) Mean 10.18 / Median 8.74 [Condt.]
Experimental: as §5, §6

Row | Binder | Mean (FL1-H) (human CD40 [12]) | Median (FL1-H) (human CD40 [12]) | Mean (FL1-H) (human CD40 [13]) | Median (FL1-H) (human CD40 [13]) | also measured
1 | B1 | 108 FL1-H | 91.8 FL1-H |  |  | -log IC50 for inhibition of IL-8 release by IFN-gamma-pulsed THP-1 cells co-cultured with Jurkat 39.8/50 cells (human CD40 [1]): 8.42 -log10 (unit not printed); -log IC50 (human CD40 [2]): 7.65 -log10 of g/mL (per p-0205: ~20-30 ng/mL); EC50 [3]: ~0.03 µg/mL; Kd [4]: 0.237 nM; -log IC50 (human CD40 [5]): 7.63 -log10 of g/mL (per p-0205: ~20-30 ng/mL); kon [6]: 2.51e+06 M⁻¹ s⁻¹; koff [7]: 0.000596 s⁻¹; Kd [8]: 5.41 nM; kon [9]: 782000 M⁻¹ s⁻¹; koff [10]: 0.00247 s⁻¹; IC50 (human CD40 [11]): 0.02 µg/mL to 0.03 µg/mL (2×) and 0.13 nM to 0.2 nM (2×)
2 | B2 | 96 FL1-H | 82 FL1-H |  |  | 
3 | B3 | 39 FL1-H | 37.5 FL1-H |  |  | 
4 | B4 |  |  | 82.5 FL1-H | 74.3 FL1-H | 
5 | B5 |  |  | 35.2 FL1-H | 34 FL1-H | 
6 | B6 | 31.2 FL1-H | 30 FL1-H |  |  | 
7 | B7 |  |  | 62.4 FL1-H | 58.8 FL1-H | 
8 | B8 |  |  | 99 FL1-H | 85.8 FL1-H | 
9 | B9 | 39.5 FL1-H | 38.2 FL1-H |  |  | 
10 | B10 |  |  | 96.4 FL1-H | 82 FL1-H | 
11 | B11 | 33.4 FL1-H | 31.9 FL1-H |  |  | 
12 | B12 |  |  | 80.3 FL1-H | 72.3 FL1-H | 
